T1: AP2-G D1 (Plasmodium falciparum, UniProt Q8I5I9 2123-2245)
T1 sequence: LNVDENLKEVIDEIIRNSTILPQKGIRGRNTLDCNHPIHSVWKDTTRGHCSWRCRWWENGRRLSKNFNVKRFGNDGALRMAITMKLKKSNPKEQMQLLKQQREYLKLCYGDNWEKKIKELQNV

B1: XGTACX_site3596 (dsDNA)
DNA 1: AAGGAAAATTTTTGGTGTACACAAAAAAATCCAAAA
DNA 2: TTTTGGATTTTTTTGTGTACACCAAAAATTTTCCTT
B2: XGTACX_site3357 (dsDNA)
DNA 1: AATATCCACATTAGGAGTACACAGCTAACTGTTTGA
DNA 2: TCAAACAGTTAGCTGTGTACTCCTAATGTGGATATT
B3: XGTACX_site6448 (dsDNA)
DNA 1: AATTTATATGTTTTGTGTACACAATTTATTAAATTA
DNA 2: TAATTTAATAAATTGTGTACACAAAACATATAAATT
B4: XGTACX_site5662 (dsDNA)
DNA 1: TTATTCTAAAAAGGGTGTACACAAACGAATGGAAAA
DNA 2: TTTTCCATTCGTTTGTGTACACCCTTTTTAGAATAA
B5: XGTACX_site2541 (dsDNA)
DNA 1: ACAGCTACCAGATACTGTACTTTTCTCCAGACTGCA
DNA 2: TGCAGTCTGGAGAAAAGTACAGTATCTGGTAGCTGT
B6: XGTACX_site7170 (dsDNA)
DNA 1: GTTTAGATAAAAGGGCGTACATCTATTTTTGACTAA
DNA 2: TTAGTCAAAAATAGATGTACGCCCTTTTATCTAAAC
B7: XGTACX_site2251 (dsDNA)
DNA 1: GTGTAAAAATTAAAGTGTACACATATATATATATAT
DNA 2: ATATATATATATATGTGTACACTTTAATTTTTACAC
B8: XGTACX_site3178 (dsDNA)
DNA 1: CTTGAAAGATTTTATTGTACTCATAAGATACATTTC
DNA 2: GAAATGTATCTTATGAGTACAATAAAATCTTTCAAG
B9: XGTACX_site206 (dsDNA)
DNA 1: TGTTTATACATCAGGTGTACGCAAAATAATTGTATG
DNA 2: CATACAATTATTTTGCGTACACCTGATGTATAAACA
B10: XGTACX_site5339 (dsDNA)
DNA 1: TATTTTTTACATTCGTGTACGCATTTTTGTGAATTT
DNA 2: AAATTCACAAAAATGCGTACACGAATGTAAAAAATA
B11: XGTACX_site5457 (dsDNA)
DNA 1: ATGGATAACAATATGTGTACACATTTATATCTCCAC
DNA 2: GTGGAGATATAAATGTGTACACATATTGTTATCCAT
B12: XGTACX_site930 (dsDNA)
DNA 1: ATACATATTAATATGTGTACACATTTTTATTTTTTT
DNA 2: AAAAAAATAAAAATGTGTACACATATTAATATGTAT
B13: XGTACX_site622 (dsDNA)
DNA 1: CTTTGTGTTAAAAGTAGTACACCAAAAATATGACTT
DNA 2: AAGTCATATTTTTGGTGTACTACTTTTAACACAAAG
B14: XGTACX_site7025 (dsDNA)
DNA 1: TTTTTCTTTTTTTGGGGTACAGGGAAATCTATATTT
DNA 2: AAATATAGATTTCCCTGTACCCCAAAAAAAGAAAAA
B15: XGTACX_site2176 (dsDNA)
DNA 1: CTTCTTATTTTCTAATGTACGTACAAATCATTTATA
DNA 2: TATAAATGATTTGTACGTACATTAGAAAATAAGAAG
B16: XGTACX_site3444 (dsDNA)
DNA 1: TATATTATATATTTATGTACGTATTTGTAAAAAGAT
DNA 2: ATCTTTTTACAAATACGTACATAAATATATAATATA
B17: XGTACX_site2257 (dsDNA)
DNA 1: CAAAATATACACACGTGTACACAAATATTTACAAAA
DNA 2: TTTTGTAAATATTTGTGTACACGTGTGTATATTTTG
B18: XGTACX_site1238 (dsDNA)
DNA 1: ATGTGCACATATAAAAGTACACGCACATATATATAT
DNA 2: ATATATATATGTGCGTGTACTTTTATATGTGCACAT
B19: XGTACX_site4360 (dsDNA)
DNA 1: GATTAAAATCAAAGGTGTACGCACAAATAAGTCCCA
DNA 2: TGGGACTTATTTGTGCGTACACCTTTGATTTTAATC
B20: XGTACX_site6063 (dsDNA)
DNA 1: ATGCATATATTTATGTGTACATATATTTGTAGGGGG
DNA 2: CCCCCTACAAATATATGTACACATAAATATATGCAT
B21: XGTACX_site882 (dsDNA)
DNA 1: TTTTCTTTTTTGAACTGTACGCGTAAATTTAAAAAG
DNA 2: CTTTTTAAATTTACGCGTACAGTTCAAAAAAGAAAA
B22: XGTACX_site8253 (dsDNA)
DNA 1: TTTTATGAAAAGATGAGTACACAATACTTTTTAATT
DNA 2: AATTAAAAAGTATTGTGTACTCATCTTTTCATAAAA
B23: XGTACX_site6887 (dsDNA)
DNA 1: TATTTTCCATGAGGTAGTACACATTAAAAAATCGTT
DNA 2: AACGATTTTTTAATGTGTACTACCTCATGGAAAATA
B24: XGTACX_site6582 (dsDNA)
DNA 1: TTTCATTTTTTTACATGTACGCAAAAGTGTGTAGTT
DNA 2: AACTACACACTTTTGCGTACATGTAAAAAAATGAAA
B25: XGTACX_site146 (dsDNA)
DNA 1: GGACGTATTAAAAGGCGTACACTAAATATTTTATGT
DNA 2: ACATAAAATATTTAGTGTACGCCTTTTAATACGTCC
B26: XGTACX_site1983 (dsDNA)
DNA 1: GTTTGGTGGTGTTTTGGTACGTACGGGGGGGTATGT
DNA 2: ACATACCCCCCCGTACGTACCAAAACACCACCAAAC
B27: XGTACX_site5031 (dsDNA)
DNA 1: ACATTATATAAAATATGTACACATAAATAAATAAAT
DNA 2: ATTTATTTATTTATGTGTACATATTTTATATAATGT
B28: XGTACX_site8426 (dsDNA)
DNA 1: TAATATTTATAATAGTGTACACAATTATAAACTGAA
DNA 2: TTCAGTTTATAATTGTGTACACTATTATAAATATTA
B29: XGTACX_site6677 (dsDNA)
DNA 1: TTGTATTTCCTTAGGAGTACACATAAATAAGTAAAT
DNA 2: ATTTACTTATTTATGTGTACTCCTAAGGAAATACAA
B30: XGTACX_site8843 (dsDNA)
DNA 1: ATAATTATTTTCCCGTGTACTTATTTTTTTCAAGTA
DNA 2: TACTTGAAAAAAATAAGTACACGGGAAAATAATTAT
B31: XGTACX_site3752 (dsDNA)
DNA 1: TAAAAAAAAAAAAAAAGTACACACATACATATAAAT
DNA 2: ATTTATATGTATGTGTGTACTTTTTTTTTTTTTTTA
B32: XGTACX_site4340 (dsDNA)
DNA 1: TGATACTTTTTTTGTAGTACTCCTAAAATTATAAAA
DNA 2: TTTTATAATTTTAGGAGTACTACAAAAAAAGTATCA
B33: XGTACX_site3050 (dsDNA)
DNA 1: ATATAATTTTTCAAGTGTACTTTTTTTTTTTAACAT
DNA 2: ATGTTAAAAAAAAAAAGTACACTTGAAAAATTATAT
B34: XGTACX_site4899 (dsDNA)
DNA 1: TATTCGTGCAATAGTAGTACACTTATAAATTATTCT
DNA 2: AGAATAATTTATAAGTGTACTACTATTGCACGAATA
B35: XGTACX_site7727 (dsDNA)
DNA 1: GGTGTATGTTAAAGGAGTACATATATATATATATAT
DNA 2: ATATATATATATATATGTACTCCTTTAACATACACC
B36: XGTACX_site6504 (dsDNA)
DNA 1: TGAAAAGATAAAAAAAGTACACACACACATATATAT
DNA 2: ATATATATGTGTGTGTGTACTTTTTTTATCTTTTCA
B37: XGTACX_site8267 (dsDNA)
DNA 1: AGATAAATATATTGTAGTACAGGAGCATAAATATAT
DNA 2: ATATATTTATGCTCCTGTACTACAATATATTTATCT
B38: XGTACX_site6064 (dsDNA)
DNA 1: TAAAACATATAAAGGTGTACGCCTTTTTGTATCAAT
DNA 2: ATTGATACAAAAAGGCGTACACCTTTATATGTTTTA
B39: XGTACX_site5245 (dsDNA)
DNA 1: AAAAACAAAATTTGGAGTACAGTTATAATATTATTA
DNA 2: TAATAATATTATAACTGTACTCCAAATTTTGTTTTT
B40: XGTACX_site2346 (dsDNA)
DNA 1: TTAATAATAAAAAGGAGTACACTAATATACTATAAA
DNA 2: TTTATAGTATATTAGTGTACTCCTTTTTATTATTAA
B41: XGTACX_site3586 (dsDNA)
DNA 1: TATACATACATTAGACGTACACATTTTACCTACACC
DNA 2: GGTGTAGGTAAAATGTGTACGTCTAATGTATGTATA
B42: XGTACX_site8307 (dsDNA)
DNA 1: AAATTATAAAAATGTAGTACAGACAATATATTCGTA
DNA 2: TACGAATATATTGTCTGTACTACATTTTTATAATTT
B43: XGTACX_site6072 (dsDNA)
DNA 1: CGTTTATATTTTAACTGTACTCAAAAAGTGCATTGT
DNA 2: ACAATGCACTTTTTGAGTACAGTTAAAATATAAACG

Biological target: T1, AP2-G D1
Assay: gcPBM; about 25 ug protein; PBS, 1% milk, 0.2 mg/ml BSA, salmon testes DNA, 0.03% Triton X-100
Details: tags: N-terminal GST (pGEX-4T-1), kept; label: surface-attached array probe

Binder | binding signal
B1 | 12.8 ln median PBM intensity, better of two orientations
B2 | 12.6 ln median PBM intensity, better of two orientations
B3 | 12.6 ln median PBM intensity, better of two orientations
B4 | 12.6 ln median PBM intensity, better of two orientations
B5 | 12.6 ln median PBM intensity, better of two orientations
B6 | 12.7 ln median PBM intensity, better of two orientations
B7 | 12.8 ln median PBM intensity, better of two orientations
B8 | 12.7 ln median PBM intensity, better of two orientations
B9 | 12.7 ln median PBM intensity, better of two orientations
B10 | 12.7 ln median PBM intensity, better of two orientations
B11 | 12.8 ln median PBM intensity, better of two orientations
B12 | 12.6 ln median PBM intensity, better of two orientations
B13 | 12.7 ln median PBM intensity, better of two orientations
B14 | 12.7 ln median PBM intensity, better of two orientations
B15 | 12.6 ln median PBM intensity, better of two orientations
B16 | 12.8 ln median PBM intensity, better of two orientations
B17 | 12.6 ln median PBM intensity, better of two orientations
B18 | 12.6 ln median PBM intensity, better of two orientations
B19 | 12.7 ln median PBM intensity, better of two orientations
B20 | 12.6 ln median PBM intensity, better of two orientations
B21 | 12.7 ln median PBM intensity, better of two orientations
B22 | 12.7 ln median PBM intensity, better of two orientations

Binder | binding signal
B23 | 12.8 ln median PBM intensity, better of two orientations
B24 | 12.6 ln median PBM intensity, better of two orientations
B25 | 12.8 ln median PBM intensity, better of two orientations
B26 | 12.7 ln median PBM intensity, better of two orientations
B27 | 12.7 ln median PBM intensity, better of two orientations
B28 | 12.7 ln median PBM intensity, better of two orientations
B29 | 12.7 ln median PBM intensity, better of two orientations
B30 | 12.6 ln median PBM intensity, better of two orientations
B31 | 12.7 ln median PBM intensity, better of two orientations
B32 | 12.8 ln median PBM intensity, better of two orientations
B33 | 12.7 ln median PBM intensity, better of two orientations
B34 | 12.7 ln median PBM intensity, better of two orientations
B35 | 12.7 ln median PBM intensity, better of two orientations
B36 | 12.7 ln median PBM intensity, better of two orientations
B37 | 12.8 ln median PBM intensity, better of two orientations
B38 | 12.6 ln median PBM intensity, better of two orientations
B39 | 12.7 ln median PBM intensity, better of two orientations
B40 | 12.7 ln median PBM intensity, better of two orientations
B41 | 12.8 ln median PBM intensity, better of two orientations
B42 | 12.7 ln median PBM intensity, better of two orientations
B43 | 12.7 ln median PBM intensity, better of two orientations
